Results reported in patent US20110206676A1 (UNIVERSITY OF CHICAGO, published 2011).

Target: T1, EsaC (Staphylococcus aureus, UniProt A0A0H2XIK2 1-130)
T1 construct: Predicted soluble 130 amino acid protein; also called EsaC polypeptide; purified EsaC
T1 sequence: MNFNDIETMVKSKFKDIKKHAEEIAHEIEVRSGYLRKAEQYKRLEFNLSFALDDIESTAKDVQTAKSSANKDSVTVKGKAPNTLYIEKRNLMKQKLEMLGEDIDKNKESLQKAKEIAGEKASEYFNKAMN
Test: purified proteins mixed; method not described

B1: EsaB (other)
chain: MNQHVKVTFDFTNYNYGTYDLAVPAYLPIKNLIALVLDSLDISIFDVNTQIKVMTKGQLLVENDRLIDYQIADGDILKLL
notes: 80 amino acid predicted soluble protein; also called purified EsaB
Question: Does B1 bind?
Answer: Result: no binding
